Experimental data from the supplement of paper PMC5998384.

Tests used:
[1] = system: HeLa Kyoto; assay: solubility in G1/S (NP-40 vs SDS abundance) (log2 ratio); higher = more soluble; conditions: cell cycle stage: G1/S
[2] = system: HeLa Kyoto; assay: solubility change mitosis vs G1/S (difference of NP-40 vs SDS log2 ratios) (log2 ratio difference); higher = more soluble in mitosis
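For solubility change mitosis vs G1/S (difference of NP-40 vs SDS log2 ratios) in this document: synchronized HeLa Kyoto cells (double thymidine block for G1/S, nocodazole release for mitosis), protein amounts in NP-40 versus SDS lysates quantified by mass spectrometry, three biological replicates.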
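For solubility in G1/S (NP-40 vs SDS abundance) in this document: HeLa Kyoto cells arrested at G1/S by double thymidine block, proteins quantified by TMT10plex mass spectrometry in mild NP-40 versus SDS extracts, three biological replicates.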

KLF4, sequence (chain, as listed by the source): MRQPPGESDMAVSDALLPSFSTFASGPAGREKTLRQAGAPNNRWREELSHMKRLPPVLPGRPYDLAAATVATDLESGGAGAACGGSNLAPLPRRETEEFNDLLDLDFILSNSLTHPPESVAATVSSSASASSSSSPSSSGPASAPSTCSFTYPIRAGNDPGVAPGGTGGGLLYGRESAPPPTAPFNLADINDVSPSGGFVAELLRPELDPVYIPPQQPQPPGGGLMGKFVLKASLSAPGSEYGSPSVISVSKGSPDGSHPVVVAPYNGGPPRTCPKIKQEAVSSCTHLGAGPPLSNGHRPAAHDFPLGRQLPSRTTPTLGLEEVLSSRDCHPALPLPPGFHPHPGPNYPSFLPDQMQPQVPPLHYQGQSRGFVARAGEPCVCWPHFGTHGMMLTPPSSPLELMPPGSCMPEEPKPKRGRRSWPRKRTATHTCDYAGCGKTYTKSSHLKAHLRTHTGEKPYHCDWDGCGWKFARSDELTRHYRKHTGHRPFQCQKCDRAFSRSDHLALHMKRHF

Substance	solubility in G1/S (log2) [1]	solubility change mitosis (log2) [2]
MNRIRIHVLPTNRGRITPVPRSQEPLSCAFTHRPCSHPRLEGQEFCIKHILEDKNAPFKQCSYISTKNGKRCPNAAPKPEKKDGVSFCAEHVRRNALALHAQMKKTNPGPVGETLLCQLSSYAKTELGSQTPESSRSEASRILDEDSWSDGEQEPITVDQTWRGDPDSEADSIDSDQEDPLKHAGVYTAEEVALIMREKLIRLQSLYIDQFKRLQHLLKEKKRRYLHNRKVEHEALGSSLLTGPEGLLAKERENLKRLKCLRRYRQRYGVEALLHRQLKERRMLATDGAAQQAHTTRSSQRCLAFVDDVRCSNQSLPMTRHCLTHICQDTNQVLFKCCQGSEEVPCNKPVPVSLSEDPCCPLHFQLPPQMYKPEQVLSVPDDLEAGPMDLYLSAAELQPTESLPLEFSDDLDVVGDGMQCPPSPLLFDPSLTLEDHLVKEIAEDPVDILGQMQMAGDGCRSQGSRNSEKASAPLSQSGLATANGKPEPTSIS [KANSL2]	0.453	-0.0302
KLF4	-0.0723	0.0866
MSELKDCPLQFHDFKSVDHLKVCPRYTAVLARSEDDGIGIEELDTLQLELETLLSSASRRLRVLEAETQILTDWQDKKGDRRFLKLGRDHELGAPPKHGKPKKQKLEGKAGHGPGPGPGRPKSKNLQPKIQEYEFTDDPIDVPRIPKNDAPNRFWASVEPYCADITSEEVRTLEELLKPPEDEAEHYKIPPLGKHYSQRWAQEDLLEEQKDGARAAAVADKKKGLMGPLTELDTKDVDALLKKSEAQHEQPEDGCPFGALTQRLLQALVEENIISPMEDSPIPDMSGKESGADGASTSPRNQNKPFSVPHTKSLESRIKEELIAQGLLESEDRPAEDSEDEVLAELRKRQAELKALSAHNRTKKHDLLRLAKEEVSRQELRQRVRMADNEVMDAFRKIMAARQKKRTPTKKEKDQAWKTLKERESILKLLDG [TADA3]	0.646	0.286
MNPLTKVKLINELNEREVQLGVADKVSWHSEYKDSAWIFLGGLPYELTEGDIICVFSQYGEIVNINLVRDKKTGKSKGFCFLCYEDQRSTILAVDNFNGIKIKGRTIRVDHVSNYRAPKDSEEIDDVTRQLQEKGCGARTPSPSLSESSEDEKPTKKHKKDKKEKKKKKKEKEKADREVQAEQPSSSSPRRKTVKEKDDTGPKKHSSKNSERAQKSEPREGQKLPKSRTAYSGGAEDLERELKKEKPKHEHKSSSRREAREEKTRIRDRGRSSDAHSSWYNGRSEGRSYRSRSRSRDKSHRHKRARRSRERESSNPSDRWRH [RBMX2]	-1.17	0.59
MPGLVDSNPAPPESQEKKPLKPCCACPETKKARDACIIEKGEEHCGHLIEAHKECMRALGFKI [COX17]	-0.216	0.425
MAALKEDRSYGLSCGRVSDGSKVSVFHVKLTDSALRAFESYRARQDSVSLRPSIRFQGSQGHISIPQPDCPAEARTFSFYLSNIGRDNPQGSFDCIQQYVSSHGEVHLDCLGSIQDKITVCATDDSYQKARQSMAQAEEETRSRSAIVIKAGGRYLGKKVQFRKPAPGATDAVPSRKRATPINLASAIRKSGASAVSGGSGVSQRPFRDRVLHLLALRPYRKAELLLRLQKDGLTQADKDALDGLLQQVANMSAKDGTCTLQDCMYKDVQKDWPGYSEGDQQLLKRVLVRKLCQPQSTGSLLGDPAASSPPGERGRSASPPQKRLQPPDFIDPLANKKPRISHFTQRAQPAVNGKLGVPNGREALLPTPGPPASTDTLSSSTHLPPRLEPPRAHDPLADVSNDLGHSGRDCEHGEAAAPAPTVRLGLPLLTDCAQPSRPHGSPSRSKPKKKSKKHKDKERAAEDKPRAQLPDCAPATHATPGAPADTPGLNGTCSVSSVPTSTSETPDYLLKYAAISSSEQRQSYKNDFNAEYSEYRDLHARIERITRRFTQLDAQLRQLSQGSEEYETTRGQILQEYRKIKKTNTNYSQEKHRCEYLHSKLAHIKRLIAEYDQRQLQAWP	-0.0524	0.218
MRFAWTVLLLGPLQLCALVHCAPPAAGQQQPPREPPAAPGAWRQQIQWENNGQVFSLLSLGSQYQPQRRRDPGAAVPGAANASAQQPRTPILLIRDNRTAAARTRTAGSSGVTAGRPRPTARHWFQAGYSTSRAREAGASRAENQTAPGEVPALSNLRPPSRVDGMVGDDPYNPYKYSDDNPYYNYYDTYERPRPGGRYRPGYGTGYFQYGLPDLVADPYYIQASTYVQKMSMYNLRCAAEENCLASTAYRADVRDYDHRVLLRFPQRVKNQGTSDFLPSRPRYSWEWHSCHQHYHSMDEFSHYDLLDANTQRRVAEGHKASFCLEDTSCDYGYHRRFACTAHTQGLSPGCYDTYGADIDCQWIDITDVKPGNYILKVSVNPSYLVPESDYTNNVVRCDIRYTGHHAYASGCTISPY [LOX]	-0.354	0.257
MSFRGGGRGGFNRGGGGGGFNRGGSSNHFRGGGGGGGGGNFRGGGRGGFGRGGGRGGFNKGQDQGPPERVVLLGEFLHPCEDDIVCKCTTDENKVPYFNAPVYLENKEQIGKVDEIFGQLRDFYFSVKLSENMKASSFKKLQKFYIDPYKLLPLQRFLPRPPGEKGPPRGGGRGGRGGGRGGGGRGGGRGGGFRGGRGGGGGGFRGGRGGGFRGRGH [GAR1]	-1.36	1.41
MKDVDNLKSIKEEWVCETGSDNQPLGNNQQSNCEYFVDSLFEEAQKVSSKCVSPAEQKKQVDVNIKLWKNGFTVNDDFRSYSDGASQQFLNSIKKGELPSELQGIFDKEEVDVKVEDKKNEICLSTKPVFQPFSGQGHRLGSATPKIVSKAKNIEVENKNNLSAVPLNNLEPITNIQIWLANGKRIVQKFNITHRVSHIKDFIEKYQGSQRSPPFSLATALPVLRLLDETLTLEEADLQNAVIIQRLQKTASFRELSEH [UBXN2A]	0.0566	0.0265
PHRF1	-0.629	0.566
MDGTEGSAGQPGPAERSHRSSVSSVGARAADVLVYLADDTVVPLAVENLPSLSAHELHRAVREVLQLPDIALDVFALWLVSPLLEVQLKPKHQPYKLGRQWPELLLRFTSAPDDDVAMDEPFLQFRRNVFFPKRRELQIHDEEVLRLLYEEAKGNVLAARYPCDVEDCEALGALVCRVQLGPYQPGRPAACDLREKLDSFLPAHLCKRGQSLFAALRGRGARAGPGEQGLLNAYRQVQEVSSDGGCEAALGTHYRAYLLKCHELPFYGCAFFHGEVDKPAQGFLHRGGRKPVSVAISLEGVHVIDSREKHVLLGLRFQELSWDHTSPEEEEPILWLEFDGDSEGTPVNKLLKIYSKQAELMSSLIEYCIELSQAAEPAGPQDSATGSPSDPSSSLAPVQRPKLRRQGSVVSSRIQHLSTIDYVEDGKGIRRVKPKRTTSFFSRQLSLGQGSYTVVQPGDSLEQG [FRMD8]	0.248	-0.0705
MGVDFDVKTFCHNLRATKPPYECPVETCRKVYKSYSGIEYHLYHYDHDNPPPPQQTPLRKHKKKGRQSRPANKQSPSPSEVSQSPGREVMSYAQAQRMVEVDLHGRVHRISIFDNLDVVSEDEEAPEEAPENGSNKENTETPAATPKSGKHKNKEKRKDSNHHHHHNVSASTTPKLPEVVYRELEQDTPDAPPRPTSYYRYIEKSAEELDEEVEYDMDEEDYIWLDIMNERRKTEGVSPIPQEIFEYLMDRLEKESYFESHNKGDPNALVDEDAVCCICNDGECQNSNVILFCDMCNLAVHQECYGVPYIPEGQWLCRRCLQSPSRAVDCALCPNKGGAFKQTDDGRWAHVVCALWIPEVCFANTVFLEPIDSIEHIPPARWKLTCYICKQRGSGACIQCHKANCYTAFHVTCAQQAGLYMKMEPVRETGANGTSFSVRKTAYCDIHTPPGSARRLPALSHSEGEEDEDEEEDEGKGWSSEKVKKAKAKSRIKMKKARKILAEKRAAAPVVSVPCIPPHRLSKITNRLTIQRKSQFMQRLHSYWTLKRQSRNGVPLLRRLQTHLQSQRNCDQVGRDSEDKNWALKEQLKSWQRLRHDLERARLLVELIRKREKLKRETIKVQQIAMEMQLTPFLILLRKTLEQLQEKDTGNIFSEPVPLSEVPDYLDHIKKPMDFFTMKQNLEAYRYLNFDDFEEDFNLIVSNCLKYNAKDTIFYRAAVRLREQGGAVLRQARRQAEKMGIDFETGMHIPHSLAGDEATHHTEDAAEEERLVLLENQKHLPVEEQLKLLLERLDEVNASKQSVGRSRRAKMIKKEMTALRRKLAHQRETGRDGPERHGPSSRGSLTPHPAACDKDGQTDSAAEESSSQETSKGLGPNMSSTPAHEVGRRTSVLFSKKNPKTAGPPKRPGRPPKNRESQMTPSHGGSPVGPPQLPIMSSLRQRKRGRSPRPSSSSDSDSDKSTEDPPMDLPANGFSGGNQPVKKSFLVYRNDCSLPRSSSDSESSSSSSSSAASDRTSTTPSKQGRGKPSFSRGTFPEDSSEDTSGTENEAYSVGTGRGVGHSMVRKSLGRGAGWLSEDEDSPLDALDLVWAKCRGYPSYPALIIDPKMPREGMFHHGVPIPVPPLEVLKLGEQMTQEAREHLYLVLFFDNKRTWQWLPRTKLVPLGVNQDLDKEKMLEGRKSNIRKSVQIAYHRALQHRSKVQGEQSSETSDSD [BRPF1]	-1.3	0.44
MDSSIHLSSLISRHDDEATRTSTSEGLEEGEVEGETLLIVESEDQASVDLSHDQSGDSLNSDEGDVSWMEEQLSYFCDKCQKWIPASQLREQLSYLKGDNFFRFTCSDCSADGKEQYERLKLTWQQVVMLAMYNLSLEGSGRQGYFRWKEDICAFIEKHWTFLLGNRKKTSTWWSTVAGCLSVGSPMYFRSGAQEFGEPGWWKLVHNKPPTMKPEGEKLSASTLKIKAASKPTLDPIITVEGLRKRASRNPVESAMELKEKRSRTQEAKDIRRAQKEAAGFLDRSTSSTPVKFISRGRRPDVILEKGEVIDFSSLSSSDRTPLTSPSPSPSLDFSAPGTPASHSATPSLLSEADLIPDVMPPQALFHDDDEMEGDGVIDPGMEYVPPPAGSVASGPVVGVRKKVRGPEQIKQEVESEEEKPDRMDIDSEDTDSNTSLQTRAREKRKPQLEKDTKPKEPRYTPVSIYEEKLLLKRLEACPGAVAMTPEARRLKRKLIVRQAKRDRGLPLFDLDQVVNAALLLVDGIYGAKEGGISRLPAGQATYRTTCQDFRILDRYQTSLPSRKGFRHQTTKFLYRLVGSEDMAVDQSIVSPYTSRILKPYIRRDYETKPPKLQLLSQIRSHLHRSDPHWTPEPDAPLDYCYVRPNHIPTINSMCQEFFWPGIDLSECLQYPDFSVVVLYKKVIIAFGFMVPDVKYNEAYISFLFVHPEWRRAGIATFMIYHLIQTCMGKDVTLHVSASNPAMLLYQKFGFKTEEYVLDFYDKYYPLESTECKHAFFLRLRR [CSRP2BP]	0.391	0.153
MGAAAAEADRTLFVGNLETKVTEELLFELFHQAGPVIKVKIPKDKDGKPKQFAFVNFKHEVSVPYAMNLLNGIKLYGRPIKIQFRSGSSHAPQDVSLSYPQHHVGNSSPTSTSPSRYERTMDNMTSSAQIIQRSFSSPENFQRQAVMNSALRQMSYGGKFGSSPLDQSGFSPSVQSHSHSFNQSSSSQWRQGTPSSQRKVRMNSYPYLADRHYSREQRYTDHGSDHHYRGKRDDFFYEDRNHDDWSHDYDNRRDSSRDGKWRSSRH [RBM7]	0.568	0.189
MATVGAPRHFCRCACFCTDNLYVARYGLHVRFRGEQQLRRDYGPILRSRGCVSAKDFQQLLAELEQEVERRQRLGQESAARKALIASSYHPARPEVYDSLQDAALAPEFLAVTEYSVSPDADLKGLLQRLETVSEEKRIYRVPVFTAPFCQALLEELEHFEQSDMPKGRPNTMNNYGVLLHELGLDEPLMTPLRERFLQPLMALLYPDCGGGRLDSHRAFVVKYAPGQDLELGCHYDNAELTLNVALGKVFTGGALYFGGLFQAPTALTEPLEVEHVVGQGVLHRGGQLHGARPLGTGERWNLVVWLRASAVRNSLCPMCCREPDLVDDEGFGDGFTREEPATVDVCALT [OGFOD2]	0.182	0.112
MYLK	-0.635	0.101
